target: acetylcholine receptor (Homo sapiens, UniProt P02708); test: SPR binding affinity (RU) of optimized 5mer/6mer/7mer peptides, Examples 6-7; settings: SPR, Resonance Units; 5mer Bottom sequence (bottom combinations); peptides tested at 10 μM
Procedure: Based on the frequencies of occurrence of the top 7 amino acids from Table 7 in Example 5, 600 peptides comprising these amino acids (top combinations) and those comprising the 13 less frequently occurring amino acids (bottom combinations) were synthesized for each series of 5mer, 6mer-1, and 6mer-2. The binding affinity of each sequence for the acetylcholine receptor was measured using Surface Plasmon Resonance (SPR) analysis method. The peptides were tested at a concentration of 10 μM. Additionally, the average binding affinities of the top and bottom combinations in each series are depicted in FIGS. 5-7.
Representative peptides identified in Example 6, two in each library, including 5mers (73, 311) and 6mers-1 (43, 210) and 6mers-2 (136, 233), were compared with the pre-optimized 6mer, 5mer-ND, and Synake.

Sequence of acetylcholine receptor (P02708 21-457): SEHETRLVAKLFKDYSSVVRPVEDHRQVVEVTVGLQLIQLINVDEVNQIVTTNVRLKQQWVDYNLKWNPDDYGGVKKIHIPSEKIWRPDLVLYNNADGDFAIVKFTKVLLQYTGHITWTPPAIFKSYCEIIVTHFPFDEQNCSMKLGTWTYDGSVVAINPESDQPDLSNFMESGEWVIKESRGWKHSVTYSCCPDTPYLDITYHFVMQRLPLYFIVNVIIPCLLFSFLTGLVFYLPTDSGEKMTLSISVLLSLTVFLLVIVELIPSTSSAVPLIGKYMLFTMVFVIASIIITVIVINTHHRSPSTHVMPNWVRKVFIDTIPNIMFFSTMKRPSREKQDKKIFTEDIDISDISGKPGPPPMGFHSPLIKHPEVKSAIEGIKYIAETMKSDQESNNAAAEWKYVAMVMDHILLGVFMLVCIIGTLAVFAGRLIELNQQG

Substance	Binding affinity [Ru]
5mer-601 (RFCFK)	13
5mer-602 (KMSVR)	12
5mer-603 (RKEPK)	27
5mer-604 (RKEGK)	13
5mer-605 (RECFK)	22
5mer-606 (RIHWK)	25
5mer-607 (RIEER)	25
5mer-608 (RDSER)	20
5mer-609 (RKTMK)	32
5mer-610 (KCDDK)	16
5mer-611 (KDHIR)	33
5mer-612 (KCTDK)	23
5mer-613 (RAEFR)	20
5mer-614 (RNTWK)	29
5mer-615 (KCCNR)	20
5mer-616 (KFCPR)	15
5mer-617 (RYCAK)	28
5mer-618 (RMSWK)	19

Substance	Binding affinity [Ru]
5mer-619 (KCSFK)	19
5mer-620 (RCMHK)	23
5mer-621 (KKSMK)	13
5mer-622 (RKPKR)	22
5mer-623 (KNTGR)	19
5mer-624 (KEHER)	22
5mer-625 (KMCDR)	33
5mer-626 (KICMR)	12
5mer-627 (KMSPK)	30
5mer-628 (RYMDR)	19
5mer-629 (RPTNK)	32
5mer-630 (RITFR)	30
5mer-631 (RPANR)	17
5mer-632 (RFSHR)	33
5mer-633 (RAAKR)	20
5mer-634 (RMMMR)	26
5mer-635 (RMNGR)	21
5mer-636 (KDKGR)	11

same assay, conditions: SPR, peptides tested at 10 μM; 5mer Top sequence

Substance	Binding affinity [Ru]
5mer-470 (KQRSK)	57
5mer-471 (RGYLR)	69
5mer-472 (RRYRK)	55
5mer-473 (RLVQR)	75
5mer-474 (RQFLR)	80
5mer-475 (RRFCK)	56
5mer-476 (RSICK)	70
5mer-477 (KGYSR)	58
5mer-478 (RVQTK)	75
5mer-479 (RQYYK)	70
5mer-480 (RWYLR)	75
5mer-481 (KSYCK)	78
5mer-482 (KQFCK)	75
5mer-483 (RSISR)	51
5mer-484 (RSFQK)	51
5mer-485 (KRQRK)	58
5mer-486 (RWLQR)	53
5mer-487 (RLVTK)	62
5mer-488 (KVRSR)	58
5mer-489 (KSYSR)	63
5mer-490 (RWLLK)	60

Substance	Binding affinity [Ru]
5mer-491 (KQIRR)	81
5mer-492 (RVVLR)	80
5mer-493 (KSIRR)	57
5mer-494 (RGFCK)	54
5mer-495 (KVVTK)	52
5mer-496 (KGIQK)	81
5mer-497 (KRRCR)	76
5mer-498 (KLISK)	53
5mer-499 (RVLTK)	76
5mer-500 (KSLQK)	63
5mer-501 (KLQRK)	78
5mer-502 (RRISR)	84
5mer-503 (KRVSK)	61
5mer-504 (KQIQR)	72
5mer-505 (RQIYR)	71
5mer-506 (RGRLR)	51
5mer-507 (KWVQK)	84
5mer-508 (KGLQK)	67
5mer-509 (RVQRK)	61
5mer-510 (RQLSK)	71
5mer-511 (KSLSR)	56

same assay, conditions: SPR, peptides tested at 10 μM; 5mer Top sequence (top combinations)

Substance	Binding affinity [Ru]
5mer-512 (RLYLK)	70
5mer-513 (RWYYK)	83
5mer-514 (KLLLK)	52
5mer-515 (RGQRK)	56
5mer-516 (KWQTR)	83
5mer-517 (KGYTR)	70
5mer-518 (RVYYR)	87
5mer-519 (RLYSK)	72
5mer-520 (RVLLK)	86
5mer-521 (KRFRK)	78
5mer-522 (RLVYR)	78
5mer-523 (KQFQK)	84
5mer-524 (RRICR)	83
5mer-525 (KQRYK)	51
5mer-526 (KQFSR)	54
5mer-527 (KSVQR)	70
5mer-528 (RVLLR)	50
5mer-529 (RVQSR)	84
5mer-530 (RWRRR)	80
5mer-531 (KRQSR)	65
5mer-532 (KQICK)	75
5mer-533 (RLVYK)	84
5mer-534 (RRQLR)	50

Substance	Binding affinity [Ru]
5mer-535 (KSLLR)	70
5mer-536 (RLITK)	78
5mer-537 (RLRLR)	59
5mer-538 (KQQQR)	72
5mer-539 (RVVTR)	70
5mer-540 (RQFYR)	74
5mer-541 (KVFLK)	80
5mer-542 (KRYTR)	85
5mer-543 (RLRLK)	65
5mer-544 (RLQLR)	63
5mer-545 (KGQYR)	80
5mer-546 (KVVLK)	65
5mer-547 (KQVTK)	77
5mer-548 (KWLCK)	60
5mer-549 (KWITK)	78
5mer-550 (RQQSR)	83
5mer-551 (RWQYR)	59
5mer-552 (RLYSR)	63
5mer-553 (KLLSR)	72
5mer-554 (RLLSK)	65
5mer-555 (KVQCK)	71
5mer-556 (RVIYK)	52
5mer-557 (KQRRK)	87

Substance	Binding affinity [Ru]
5mer-558 (RWRYK)	84
5mer-559 (KQQLK)	81
5mer-560 (KWYQR)	59
5mer-561 (KWRCK)	72
5mer-562 (RVRQR)	70
5mer-563 (RLVLK)	60
5mer-564 (RSRYR)	74
5mer-565 (RLVSK)	77
5mer-566 (KQLYK)	78
5mer-567 (RRYCK)	63
5mer-568 (KQITR)	64
5mer-569 (RQQRK)	79
5mer-570 (KLVRR)	56
5mer-571 (RRLTK)	51
5mer-572 (KLRTK)	58
5mer-573 (RSIYR)	84
5mer-574 (KGFTR)	59
5mer-575 (KGFYR)	69
5mer-576 (RLFRK)	62
5mer-577 (KLVTK)	77
5mer-578 (KSVLR)	65
5mer-579 (RSLYK)	53
5mer-580 (RGYTR)	70

Substance	Binding affinity [Ru]
5mer-581 (KGVLR)	65
5mer-582 (RGICK)	82
5mer-583 (KVVYR)	75
5mer-584 (KQIQK)	76
5mer-585 (RSVSK)	74
5mer-586 (KGRRR)	78
5mer-587 (RVITR)	66
5mer-588 (RSFTR)	60
5mer-589 (KGLCR)	58
5mer-590 (KQYTK)	81
5mer-591 (RVYTK)	61
5mer-592 (RWLCR)	56
5mer-593 (KQYLK)	77
5mer-594 (KQYSR)	50
5mer-595 (KWQQR)	58
5mer-596 (KLQQR)	56
5mer-597 (KLVSR)	68
5mer-598 (RVRSK)	84
5mer-599 (KWVSR)	61
5mer-600 (KLYSK)	64
